Test results taken from paper PMC12636033, “Chemical Engineering of Transcription Factors Uncovered Cell-Permeable μMax Modulators”.

B1: dBr_Jan07_16988 (dsDNA)
DNA 1: CCACCTAGGGGATACTCGCAAGGTCGGGAAACCACCGTCTGTGTTCCGTTGTCCGTGCTG
DNA 2: CAGCACGGACAACGGAACACAGACGGTGGTTTCCCGACCTTGCGAGTATCCCCTAGGTGG
B2: dBr_Jan07_22296 (dsDNA)
DNA 1: TGAAGTGATTGTATGACCTTCTCCACTCTGCCGCCAGTCTGTGTTCCGTTGTCCGTGCTG
DNA 2: CAGCACGGACAACGGAACACAGACTGGCGGCAGAGTGGAGAAGGTCATACAATCACTTCA
B3: dBr_Jan07_07252 (dsDNA)
DNA 1: ATCCTGCCGCTTTCAATCGCCGGACAGCGATCGACAGTCTGTGTTCCGTTGTCCGTGCTG
DNA 2: CAGCACGGACAACGGAACACAGACTGTCGATCGCTGTCCGGCGATTGAAAGCGGCAGGAT
B4: dBr_Jan07_08379 (dsDNA)
DNA 1: CGCGGAAGCCTCTACGCTTGATTGTATCCAACACCCGTCTGTGTTCCGTTGTCCGTGCTG
DNA 2: CAGCACGGACAACGGAACACAGACGGGTGTTGGATACAATCAAGCGTAGAGGCTTCCGCG
B5: dBr_Jan07_03085 (dsDNA)
DNA 1: TGTACGGGAGACCTTGCGGCGCCTACGAGCAACAACGTCTGTGTTCCGTTGTCCGTGCTG
DNA 2: CAGCACGGACAACGGAACACAGACGTTGTTGCTCGTAGGCGCCGCAAGGTCTCCCGTACA
B6: dBr_Jan07_00680 (dsDNA)
DNA 1: ACACCAGCGCGTCAGGAGTTGTGTGAACCCACACCCGTCTGTGTTCCGTTGTCCGTGCTG
DNA 2: CAGCACGGACAACGGAACACAGACGGGTGTGGGTTCACACAACTCCTGACGCGCTGGTGT
B7: dBr_Jan07_30748 (dsDNA)
DNA 1: CCGCAAGGAGCGCACTAGCATCTCCTCTCTTGGGCCGTCTGTGTTCCGTTGTCCGTGCTG
DNA 2: CAGCACGGACAACGGAACACAGACGGCCCAAGAGAGGAGATGCTAGTGCGCTCCTTGCGG
B8: dBr_Jan07_28571 (dsDNA)
DNA 1: TCGTTCTTATTTTGGCACGTGCACCCGCTTTGCTCAGTCTGTGTTCCGTTGTCCGTGCTG
DNA 2: CAGCACGGACAACGGAACACAGACTGAGCAAAGCGGGTGCACGTGCCAAAATAAGAACGA
B9: dBr_Jan07_19002 (dsDNA)
DNA 1: CTATGCCGGGATAGTTCACCATACGGTCACAGCTTTGTCTGTGTTCCGTTGTCCGTGCTG
DNA 2: CAGCACGGACAACGGAACACAGACAAAGCTGTGACCGTATGGTGAACTATCCCGGCATAG
B10: dBr_Jan07_13143 (dsDNA)
DNA 1: AGCTGTTGGTGCATCCTATGTCGAAGACTGGCGGCGGTCTGTGTTCCGTTGTCCGTGCTG
DNA 2: CAGCACGGACAACGGAACACAGACCGCCGCCAGTCTTCGACATAGGATGCACCAACAGCT
B11: dBr_Jan07_28572 (dsDNA)
DNA 1: CGCTTTGCTCAGACGTCTGACTCGGACTATGAGAGGGTCTGTGTTCCGTTGTCCGTGCTG
DNA 2: CAGCACGGACAACGGAACACAGACCCTCTCATAGTCCGAGTCAGACGTCTGAGCAAAGCG
B12: dBr_Jan07_40185 (dsDNA)
DNA 1: AGAATCAAGGTGAGCGAGCAAGGCTTAAAATCCCGCGTCTGTGTTCCGTTGTCCGTGCTG
DNA 2: CAGCACGGACAACGGAACACAGACGCGGGATTTTAAGCCTTGCTCGCTCACCTTGATTCT
B13: dBr_Jan07_11873 (dsDNA)
DNA 1: CCAGAGTTCGTAGGCAAAAACCCGCGACGGTATGCCGTCTGTGTTCCGTTGTCCGTGCTG
DNA 2: CAGCACGGACAACGGAACACAGACGGCATACCGTCGCGGGTTTTTGCCTACGAACTCTGG
B14: dBr_Jan07_28323 (dsDNA)
DNA 1: GGCTCAAGACAGATTGCAGCTTTGACAACCGAATTCGTCTGTGTTCCGTTGTCCGTGCTG
DNA 2: CAGCACGGACAACGGAACACAGACGAATTCGGTTGTCAAAGCTGCAATCTGTCTTGAGCC
B15: dBr_Jan07_18521 (dsDNA)
DNA 1: ACCAATTAGAACGTATCTATGGAGCTTGCCCGATCGGTCTGTGTTCCGTTGTCCGTGCTG
DNA 2: CAGCACGGACAACGGAACACAGACCGATCGGGCAAGCTCCATAGATACGTTCTAATTGGT
B16: dBr_Jan07_40846 (dsDNA)
DNA 1: CCAGATCAACGCTTGCTAAATAAACGCAGCAAACTGGTCTGTGTTCCGTTGTCCGTGCTG
DNA 2: CAGCACGGACAACGGAACACAGACCAGTTTGCTGCGTTTATTTAGCAAGCGTTGATCTGG
B17: dBr_Jan07_34791 (dsDNA)
DNA 1: GACTTGCCTACTACGCCAGAATTAGCTAGTTGGGTAGTCTGTGTTCCGTTGTCCGTGCTG
DNA 2: CAGCACGGACAACGGAACACAGACTACCCAACTAGCTAATTCTGGCGTAGTAGGCAAGTC
B18: dBr_Jan07_31951 (dsDNA)
DNA 1: CATGAGAATCGGCCCGGGTTACGTTCGCGGTACAATGTCTGTGTTCCGTTGTCCGTGCTG
DNA 2: CAGCACGGACAACGGAACACAGACATTGTACCGCGAACGTAACCCGGGCCGATTCTCATG
B19: dBr_Jan07_36343 (dsDNA)
DNA 1: ATCGGTTAAAGTAACTATATTGGGCTTATCGGACCAGTCTGTGTTCCGTTGTCCGTGCTG
DNA 2: CAGCACGGACAACGGAACACAGACTGGTCCGATAAGCCCAATATAGTTACTTTAACCGAT
B20: dBr_Jan07_08921 (dsDNA)
DNA 1: CAGACAAAGTCACTGGGCGAGCATGAACCGTTTGCCGTCTGTGTTCCGTTGTCCGTGCTG
DNA 2: CAGCACGGACAACGGAACACAGACGGCAAACGGTTCATGCTCGCCCAGTGACTTTGTCTG
B21: dBr_Jan07_23467 (dsDNA)
DNA 1: ATTGGGGATGACAAGAGCTCTTCACAAAGAGGCCTTGTCTGTGTTCCGTTGTCCGTGCTG
DNA 2: CAGCACGGACAACGGAACACAGACAAGGCCTCTTTGTGAAGAGCTCTTGTCATCCCCAAT
B22: dBr_Jan07_08177 (dsDNA)
DNA 1: GGAGGTCTAACTGGGAACGGCAATGCGCCCATATTTGTCTGTGTTCCGTTGTCCGTGCTG
DNA 2: CAGCACGGACAACGGAACACAGACAAATATGGGCGCATTGCCGTTCCCAGTTAGACCTCC
B23: dBr_Jan07_18594 (dsDNA)
DNA 1: CCAACATCTAAGACCCTGGTAGGGCCTTTCCGACCCGTCTGTGTTCCGTTGTCCGTGCTG
DNA 2: CAGCACGGACAACGGAACACAGACGGGTCGGAAAGGCCCTACCAGGGTCTTAGATGTTGG
B24: dBr_Jan07_17054 (dsDNA)
DNA 1: GTTCTCCCTTGATTCAAGTATAACAAGATACCCATCGTCTGTGTTCCGTTGTCCGTGCTG
DNA 2: CAGCACGGACAACGGAACACAGACGATGGGTATCTTGTTATACTTGAATCAAGGGAGAAC
B25: dBr_Jan07_14635 (dsDNA)
DNA 1: CCTAGAATTCCAACATGACTGTCAACTTGGGAATCTGTCTGTGTTCCGTTGTCCGTGCTG
DNA 2: CAGCACGGACAACGGAACACAGACAGATTCCCAAGTTGACAGTCATGTTGGAATTCTAGG
B26: dBr_Jan07_21945 (dsDNA)
DNA 1: GCAGGGGTGTAGGACAACTCGGCGTCAGTGGGTAGTGTCTGTGTTCCGTTGTCCGTGCTG
DNA 2: CAGCACGGACAACGGAACACAGACACTACCCACTGACGCCGAGTTGTCCTACACCCCTGC
B27: dBr_Jan07_10250 (dsDNA)
DNA 1: CCGCTCCACGAGCCACGACCGAATACCGTACACGTGGTCTGTGTTCCGTTGTCCGTGCTG
DNA 2: CAGCACGGACAACGGAACACAGACCACGTGTACGGTATTCGGTCGTGGCTCGTGGAGCGG
B28: dBr_Jan07_04854 (dsDNA)
DNA 1: CTGGGTTGGCCCTGCATTGGATACCTTTGAGCTCTCGTCTGTGTTCCGTTGTCCGTGCTG
DNA 2: CAGCACGGACAACGGAACACAGACGAGAGCTCAAAGGTATCCAATGCAGGGCCAACCCAG
B29: dBr_Jan07_22655 (dsDNA)
DNA 1: GCCCACCCACCGAAATCGTCAATAGGCCTCACAGAAGTCTGTGTTCCGTTGTCCGTGCTG
DNA 2: CAGCACGGACAACGGAACACAGACTTCTGTGAGGCCTATTGACGATTTCGGTGGGTGGGC
B30: dBr_Jan07_30609 (dsDNA)
DNA 1: CGGAAGTCAGATAAAAGGTGGTATCGCGGCTTTAAAGTCTGTGTTCCGTTGTCCGTGCTG
DNA 2: CAGCACGGACAACGGAACACAGACTTTAAAGCCGCGATACCACCTTTTATCTGACTTCCG
B31: dBr_Jan07_40232 (dsDNA)
DNA 1: TCGCGGAGACACCGCACTACGAGTGGCGAGAAGACCGTCTGTGTTCCGTTGTCCGTGCTG
DNA 2: CAGCACGGACAACGGAACACAGACGGTCTTCTCGCCACTCGTAGTGCGGTGTCTCCGCGA
B32: dBr_Jan07_23776 (dsDNA)
DNA 1: CAGCCGCGGCGCCTCTAGCAATCAGGAGCGTCGGTAGTCTGTGTTCCGTTGTCCGTGCTG
DNA 2: CAGCACGGACAACGGAACACAGACTACCGACGCTCCTGATTGCTAGAGGCGCCGCGGCTG
B33: dBr_Jan07_33770 (dsDNA)
DNA 1: GCGACCCTTCCACGTGCGTGTGTTAATGAGCGCATTGTCTGTGTTCCGTTGTCCGTGCTG
DNA 2: CAGCACGGACAACGGAACACAGACAATGCGCTCATTAACACACGCACGTGGAAGGGTCGC

Target: WT Max (Homo sapiens, UniProt P61244-2 13-93, M65Nle, norleucine written as M; other non-natural residues written as X)
Sequence (P61244 other isoform, or with tags, fused parts or gaps M65Nle): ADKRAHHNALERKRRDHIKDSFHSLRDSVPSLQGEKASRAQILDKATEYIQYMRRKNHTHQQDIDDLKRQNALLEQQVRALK
Assay: PBM; 50-200 nM protein; PBS, 2% milk, BSA, salmon testes DNA, 0.02% Triton X-100
Details: chain copies: 2; label: surface-attached array probe

| Binder | binding signal |
| --- | --- |
| B1 | -0.45 robust z of log adjusted intensity (ours), mean of two arrays |
| B2 | -0.32 robust z of log adjusted intensity (ours), mean of two arrays |
| B3 | -0.55 robust z of log adjusted intensity (ours), mean of two arrays |
| B4 | -0.26 robust z of log adjusted intensity (ours), mean of two arrays |
| B5 | -0.59 robust z of log adjusted intensity (ours), mean of two arrays |
| B6 | -0.81 robust z of log adjusted intensity (ours), mean of two arrays |
| B7 | -0.64 robust z of log adjusted intensity (ours), mean of two arrays |
| B8 | 5.15 robust z of log adjusted intensity (ours), mean of two arrays |
| B9 | -0.39 robust z of log adjusted intensity (ours), mean of two arrays |
| B10 | -0.67 robust z of log adjusted intensity (ours), mean of two arrays |
| B11 | -0.41 robust z of log adjusted intensity (ours), mean of two arrays |
| B12 | -0.61 robust z of log adjusted intensity (ours), mean of two arrays |
| B13 | -0.41 robust z of log adjusted intensity (ours), mean of two arrays |
| B14 | -0.41 robust z of log adjusted intensity (ours), mean of two arrays |
| B15 | -0.67 robust z of log adjusted intensity (ours), mean of two arrays |
| B16 | -0.51 robust z of log adjusted intensity (ours), mean of two arrays |
| B17 | -0.49 robust z of log adjusted intensity (ours), mean of two arrays |

| Binder | binding signal |
| --- | --- |
| B18 | -0.54 robust z of log adjusted intensity (ours), mean of two arrays |
| B19 | -0.56 robust z of log adjusted intensity (ours), mean of two arrays |
| B20 | -0.81 robust z of log adjusted intensity (ours), mean of two arrays |
| B21 | -0.43 robust z of log adjusted intensity (ours), mean of two arrays |
| B22 | -0.41 robust z of log adjusted intensity (ours), mean of two arrays |
| B23 | -0.86 robust z of log adjusted intensity (ours), mean of two arrays |
| B24 | -0.28 robust z of log adjusted intensity (ours), mean of two arrays |
| B25 | -0.81 robust z of log adjusted intensity (ours), mean of two arrays |
| B26 | -0.45 robust z of log adjusted intensity (ours), mean of two arrays |
| B27 | 4.92 robust z of log adjusted intensity (ours), mean of two arrays |
| B28 | -0.33 robust z of log adjusted intensity (ours), mean of two arrays |
| B29 | -0.54 robust z of log adjusted intensity (ours), mean of two arrays |
| B30 | -0.46 robust z of log adjusted intensity (ours), mean of two arrays |
| B31 | -0.86 robust z of log adjusted intensity (ours), mean of two arrays |
| B32 | -0.83 robust z of log adjusted intensity (ours), mean of two arrays |
| B33 | 4.84 robust z of log adjusted intensity (ours), mean of two arrays |
